Results published in patent US12383631 (BRIGHT PEAK THERAPEUTICS, dated 2025).

B1: recombinant Human Fc gamma RIIA/CD32a (H167) Protein (R&D systems, 9595-CD-050) (receptor)
chain: AAPPKAVLKLEPPWINVLQEDSVTLTCQGARSPESDSIQWFHNGNLIPTHTQPSYRFKANNNDSGEYTCQTGQTSLSDPVHLTVLSEWLVLQTPHLEFQEGETIMLRCHSWKDKPLVKVTFFQNGKSQKFSHLDPTFSIPQANHSHSGDYHCTGNIGYTLFSSKPVTITVQVPSMGSSSPMGI
notes: detected with an anti-His antibody; tag not described; also called FcγRIIa (CD32a)

Tests used:
[1] = molecular target: T1, Composition B (Atezolizumab/Tecentriq conjugated to IL-18 polypeptide of SEQ ID NO: 30) (human, UniProt P0DOX5 2-449 = IgG part; P0DOX7 1-214; Q14116 37-193, chemical linker to the antibody; site not stated for this composition; chemical linker to IL-18; site not stated for this composition); test: ELISA; immunocytokine coated, receptor titrated, anti-His-HRP
T1 construct: immunocytokine
Description: (§1) The interaction of the unmodified and of conjugated antibodies with human Fc gamma receptors I (FcγRI/CD64), with human Fc gamma receptors IIa (FcγRIIa/CD32a), with inhibitory human Fc gamma receptors IIb (FcγRIIb/CD32b), and with human Fc gamma receptors III FcγRIIIa/CD16 were measured by ELISA.
Briefly, Corning high-binding half-area plates (Fisher Scientific, Reinach, Switzerland) were coated overnight at 4° C. with 25 μl of unmodified and of conjugated anti-PD1 antibodies at 2.5 μg/ml in PBS. Plates were then washed four times with 100 μl of PBS-0.02% Tween20. Plates surfaces were blocked with 25 μl of PBS-0.02% Tween20-1% BSA at 37° C. during 1 h. Plates were then washed four times with 100 μl of PBS-0.02% Tween20. […] ELISA signal was then measured at 450 nm on an EnSpire plate reader from Perkin Elmer (Schwerzenbach, Switzerland). Binding Affinity of Reference Antibodies and Immunocytokines with Human Fc Gamma Receptors as Measured by ELISA

[2] = molecular target: T2, His-tagged human PD1 (R&D #8986-PD) (human, UniProt Q15116 25-167); test: BLI (Octet), antibody on AHC sensor, His-tagged PD-1 as analyte
T2 construct: bought; not shown: His tag
Description: (§2) Based on Bio-Layer Interferometry (BLI), Octet® BLI systems enable real-time, label-free analysis for the determination of kinetics and affinity of a ligands to its receptor. Here anti-human IgG FC Capture (AHC) sensors are loaded with the test items (ICs). Sensors are first dipped into a kinetic buffer for baseline measurement, then into an analyte solution, here human PD1, to allow association and again into a buffer solution where the analyte is allowed to come off the ligand (dissociation). Several concentrations of analyte are run in parallel and enable the calculation of affinity parameters: Ka, Kd, KD.
(§3) Typically, first, the sensors are regenerated by 3 cycles of dipping into 10 mM glycine solution at pH=2 for 20 seconds, followed by 20 second kinetics buffer and a final 60 seconds in kinetics buffer to establish the initial signal (baseline). Second, the loading column will contain the ligand, here the unmodified PD-1 antibodies and of IL-18 polypeptide conjugated PD-1 antibody, at a fixed concentration determined in the loading scout experiment (20 ug/mL). Then another wash/baseline step allows non immobilized proteins to be washed away. The association column will contain the 2-fold dilution series of the analyte (His-tagged human PD1, R&D #8986-PD) including a no analyte control. […] The dissociation designates the sensors to return to previous baseline column with kinetics buffer. After acquisition, the data is analyzed with Data Analysis Studio software (Sartorius). Data sets are first preprocessed by subtracting references samples and aligning curves on the baseline step. Group fitting is then applied to the data series and kinetics parameters are calculated.

[3] = molecular target: T3, Biotinylated Recombinant Human PD-1/CD279-Fc Chimera, carrier-free (Biolegend #789406) (human, UniProt Q15116 25-167, biotinylated); test: ELISA; antibody coated, biotinylated PD-1-Fc titrated
T3 construct: bought; also called recombinant biotinylated human PD-1; Fc part of the bought chimera not given
Description: (§4) The interaction of the unmodified antibodies and corresponding IL-18 immunocytokines with relevant immune cell associated antigen are measured by ELISA assay. For these studies, Corning high-binding half-area plates (Fisher Scientific, Reinach, Switzerland) are coated overnight at 4° C. with 25 μl of unmodified antibodies corresponding IL-18 immunocytokines at 5 μg/ml in PBS. Plates are then washed four times with 100 μl of PBS-0.02% Tween20. Plate surfaces are blocked with 25 μl of PBS-0.02% Tween20-1% BSA at 37° C. during 1 h. Plates are then washed four times with 100 μl of PBS-0.02% Tween20. […] Plates are then washed four times with 100 μl of PBS-0.02% Tween20. Twenty-five microliters of Streptavidin-Horseradish peroxidase (#RABHRP3, Merck, Buchs, Switzerland) diluted at 1:500 into PBS-0.02% Tween20-0.1% BSA are added to each well and incubated at Room Temperature during 30 min. Plates are then washed four times with 100 μl of PBS-0.02% Tween20. Fifty microliters of TMB substrate reagent (#CL07, Merck, Buchs, Switzerland) are added to each well and incubated at 37° C. during 5 min. After 5 min at 37° C., Horseradish peroxidase reaction is stopped by adding 50 μl/well of 0.5M H_2SO_4 stop solution. ELISA signal is then measured at 450 nm on an ENSPTRE® plate reader from Perkin Elmer (Schwerzenbach, Switzerland).

[4] = molecular target: T3, Biotinylated Recombinant Human …; test: ELISA: antibody coated on the plate (5 ug/ml), biotinylated human PD-1/CD279-Fc titrated in solution (x-axis), streptavidin-HRP/TMB, 450 nm
Description: as §4

[5] = molecular target: T2, His-tagged human PD1 (R&D #8986-PD); test: BLI (Octet), immunocytokine on AHC sensor, His-tagged PD-1 as analyte
Description: as §2, §3

[6] = molecular target: T3, Biotinylated Recombinant Human …; test: ELISA; immunocytokine coated, biotinylated PD-1-Fc titrated
Description: as §4

[7] = molecular target: T3, Biotinylated Recombinant Human …; test: ELISA: immunocytokine coated on the plate (5 ug/ml), biotinylated human PD-1/CD279-Fc titrated in solution (x-axis), streptavidin-HRP/TMB, 450 nm
Description: as §4

[8] = molecular target: T4, recombinant biotinylated human FcRn (human, UniProt P55899 24-297; P61769 21-119, limits assumed, biotinylated); test: AlphaLISA competition at pH 6; competitor: human IgG on acceptor beads
T4 construct: also called human neonatal Fc receptor (FcRn)
Description: The interaction of the unmodified and of conjugated anti-PD1 antibodies with the human neonatal Fc receptor (FcRn) at pH 6 was measured using the AlphaLISA® Human FcRn Binding Kit (AL3095C) from Perkin Elmer (Schwerzenbach, Switzerland).
After 90 min at 23° C. in the dark, AlphaLISA® signal was measured on an EnSpire plate reader (Excitation at 680 nm, Emission at 615 nm) from Perkin Elmer (Schwerzenbach, Switzerland). Binding Affinity of Reference Antibodies and Immunocytokines with the Human Neonatal Fc Receptor as Measured by AlphaLISA

[9] = molecular target: T5, recombinant Human Fc gamma RI/CD64 Protein (R&D systems, 1257-FC-050) (human, UniProt P12314 16-288); test: ELISA; antibody coated, receptor titrated, anti-His-HRP
T5 construct: detected with an anti-His antibody; tag not described; also called FcγRI/CD64; human Fc gamma receptor I
Description: as §1
(§5) Briefly, Corning high-binding half-area plates (Fisher Scientific, Reinach, Switzerland) were coated overnight at 4° C. with 25 μl of unmodified and of conjugated anti-PD1 antibodies at 2.5 μg/ml in PBS. Plates were then washed four times with 100 μl of PBS-0.02% Tween20. Plates surfaces were blocked with 25 μl of PBS-0.02% Tween20-1% BSA at 37° C. during 1 h. Plates were then washed four times with 100 μl of PBS-0.02% Tween20. Then twenty-five microliters of either recombinant Human Fc gamma RI/CD64 Protein (R&D systems, 1257-FC-050, CF), recombinant Human Fc gamma RIIA/CD32a (H167) Protein (R&D systems, 9595-CD-050, CF), recombinant Human Fc gamma RIIB/CD32b Avi-tag Protein (R&D systems, AVI1875-050, CF), or recombinant Human Fc gamma RIIIA/CD16a Protein (R&D systems, 4325-FC-050; CF) were added in five-fold serial dilutions ranging from 1000 nM to 0.001 nM into PBS-0.02% Tween20-0.1% BSA and incubated at 37° C. during 2 h. Plates were then washed four times with 100 μl of PBS-0.02% Tween20. Twenty-five microliters of a 1/500 HRP-anti-His antibody in PBS—0.02% Tween20-0.1% BSA (R&D systems, anti-HIS—HRP Ab, #MAB050H) were added to each well and plates were incubated at Room Temperature during 1 h. Plates were then washed four times with 100 μl of PBS-0.02% Tween20. Fifty microliters of TMB substrate reagent (#CL07, Merck, Buchs, Switzerland) were added to each well and incubated at 37° C. during 5 min. After 5 min at 37° C., Horseradish peroxidase reaction was stopped by adding 50 μl/well of 0.5M H2SO4 stop solution. ELISA signal was then measured at 450 nm on an EnSpire plate reader from Perkin Elmer (Schwerzenbach, Switzerland). Binding Affinity of Reference Antibodies and Immunocytokines with Human Fc Gamma Receptors as Measured by ELISA

[10] = molecular target: B1; test: as above
Description: as §1, §5

[11] = molecular target: T6, recombinant Human Fc gamma RIIIA/CD16a Protein (R&D systems, 4325-FC-050) (human, UniProt P08637 17-208); test: as above
T6 construct: detected with an anti-His antibody; tag and allotype not described; also called FcγRIIIa (CD16)
Description: as §1, §5

[12] = molecular target: T7, recombinant Human Fc gamma RIIB/CD32b Avi-tag Protein (R&D systems, AVI1875-050) (human, UniProt P31994 46-217); test: as above
T7 construct: also called FcγRIIb (CD32b); not shown: Avi-tag
T7 sequence (looked up): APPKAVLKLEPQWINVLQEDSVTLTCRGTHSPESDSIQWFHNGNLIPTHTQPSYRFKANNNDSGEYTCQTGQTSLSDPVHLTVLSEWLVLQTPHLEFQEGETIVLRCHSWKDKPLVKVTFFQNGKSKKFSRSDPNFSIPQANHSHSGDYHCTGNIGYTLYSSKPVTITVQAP
Description: as §1, §5

B1
Kd [1]: 1740 nM

B2: LZM-009 (antibody, V domains shown)
VH: QVQLVQSGAEVKKPGASVKVSCKASGYTFTSYYMYWVRQAPGQGLEWMGGVNPSNGGTNFNEKFKSRVTITADKSTSTAYMELSSLRSEDTAVYYCARRDYRYDMGFDYWGQGTTVTVSS
VL: EIVLTQSPATLSLSPGERATISCRASKGVSTSGYSYLHWYQQKPGQAPRLLIYLASYLESGVPARFSGSGSGTDFTLTISSLEPEDFATYYCQHSRELPLTFGTGTKVEIK
notes: also called LZM-009 anti-PD-1 antibody
Kd [2]: 23.5 nM
koff [2]: 0.0077 s⁻¹
kon [2]: 342000 M⁻¹ s⁻¹
Kd [3]: 0.0407 nM
EC50 (read off the curve) [4]: ~0.06 nM

B3: Composition A (LZM-009 conjugated to IL-18 polypeptide of SEQ ID NO: 30) (other)
VH: QVQLVQSGAEVKKPGASVKVSCKASGYTFTSYYMYWVRQAPGQGLEWMGGVNPSNGGTNFNEKFKSRVTITADKSTSTAYMELSSLRSEDTAVYYCARRDYRYDMGFDYWGQGTTVTVSS
VL: EIVLTQSPATLSLSPGERATISCRASKGVSTSGYSYLHWYQQKPGQAPRLLIYLASYLESGVPARFSGSGSGTDFTLTISSLEPEDFATYYCQHSRELPLTFGTGTKVEIK
chain: YFGKLKSKLSIIRNLNDQVLFIDQGNRPLFEDMTDSDARDNAPRTIFIISMYADSQPRGMAVAISVKCEKISTLSAENKIISFKEMNPPDNIKDTKSDIIFFQRSVPGHDNKMQFESSSYEGYFLAAEKERDLFKLILKKEDELGDRSIMFTVQNED
Kd [5]: 11.5 nM
koff [5]: 0.00479 s⁻¹
kon [5]: 454000 M⁻¹ s⁻¹
Kd [6]: 0.0467 nM
EC50 (read off the curve) [7]: ~0.07 nM

B4: Durvalumab/Imfinzi (antibody, human IgG1, kappa)
heavy: EVQLVESGGGLVQPGGSLRLSCAASGFTFSRYWMSWVRQAPGKGLEWVANIKQDGSEKYYVDSVKGRFTISRDNAKNSLYLQMNSLRAEDTAVYYCAREGGWFGELAFDYWGQGTLVTVSSASTKGPSVFPLAPSSKSTSGGTAALGCLVKDYFPEPVTVSWNSGALTSGVHTFPAVLQSSGLYSLSSVVTVPSSSLGTQTYICNVNHKPSNTKVDKRVEPKSCDKTHTCPPCPAPEFEGGPSVFLFPPKPKDTLMISRTPEVTCVVVDVSHEDPEVKFNWYVDGVEVHNAKTKPREEQYNSTYRVVSVLTVLHQDWLNGKEYKCKVSNKALPASIEKTISKAKGQPREPQVYTLPPSREEMTKNQVSLTCLVKGFYPSDIAVEWESNGQPENNYKTTPPVLDSDGSFFLYSKLTVDKSRWQQGNVFSCSVMHEALHNHYTQKSLSLSPGK
light: EIVLTQSPGTLSLSPGERATLSCRASQRVSSSYLAWYQQKPGQAPRLLIYDASSRATGIPDRFSGSGSGTDFTLTISRLEPEDFAVYYCQQYGSLPWTFGQGTKVEIKRTVAAPSVFIFPPSDEQLKSGTASVVCLLNNFYPREAKVQWKVDNALQSGNSQESVTEQDSKDSTYSLSSTLTLSKADYEKHKVYACEVTHQGLSSPVTKSFNRGEC
notes: also called MEDI-4736
Kd [8]: 8.31 nM
Kd [9]: 2.34 nM
Kd [10]: 160 nM
Kd [11]: 234 nM
Kd [12]: 233 nM
